System: Escherichia coli TOP10
Experiment: shrunken log2 fold change of peptide-encoding DNA abundance (4.5 h post-induction vs induction); higher = less antimicrobial activity (less host growth inhibition)
Details: time post-induction: 4.5 h; library: site-saturation at positions 5, 18, 19, 20
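Also: peptides expressed intracellularly from a pBAD plasmid library in pooled LB shake-flask culture, induced with 0.3% L-arabinose, DNA abundance read by NGS, three biological replicates, DESeq2 with apeglm shrinkage.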

Sequence | shrunken log2 fold change
RRIRKRPPRLPRPRPRPKEEPRP | 0.0277
RRIRARPPRLPRPRPRPFCGPRP | -0.0184
RRIRDRPPRLPRPRPRPAMAPRP | 0.575
RRIRRRPPRLPRPRPRPRCGPRP | 0.474
RRIRDRPPRLPRPRPRPIGNPRP | 0.279
RRIRPRPPRLPRPRPRPGFFPRP | 0.216
RRIRMRPPRLPRPRPRPRIPPRP | 0.199
RRIRYRPPRLPRPRPRPWALPRP | -0.355
RRIRWRPPRLPRPRPRPAKPPRP | 0.0169
RRIRFRPPRLPRPRPRPPWWPRP | 0.651
RRIRDRPPRLPRPRPRPSDVPRP | -0.022
RRIRWRPPRLPRPRPRPWIRPRP | -0.124
RRIRMRPPRLPRPRPRPYALPRP | 0.0157
RRIRVRPPRLPRPRPRPWARPRP | 0.416
RRIRMRPPRLPRPRPRPYQNPRP | 0.0826
RRIRVRPPRLPRPRPRPDCVPRP | 0.0012
RRIRERPPRLPRPRPRPTLWPRP | 0.364
RRIRKRPPRLPRPRPRPTYVPRP | -0.201
RRIRDRPPRLPRPRPRPNKLPRP | -0.277
RRIRNRPPRLPRPRPRPTEHPRP | 0.141
RRIRRRPPRLPRPRPRPWGCPRP | 0.0658

Sequence | shrunken log2 fold change
RRIRIRPPRLPRPRPRPCSRPRP | -0.139
RRIRKRPPRLPRPRPRPPRLPRP | 0.678
RRIRDRPPRLPRPRPRPETYPRP | 0.217
RRIRERPPRLPRPRPRPITWPRP | 0.0224
RRIRERPPRLPRPRPRPSWNPRP | -0.701
RRIRCRPPRLPRPRPRPMGQPRP | 0.00321
RRIRPRPPRLPRPRPRPNLEPRP | -0.0337
RRIRERPPRLPRPRPRPWYQPRP | -0.219
RRIRIRPPRLPRPRPRPGDLPRP | -0.223
RRIRLRPPRLPRPRPRPYIKPRP | -0.882
RRIRCRPPRLPRPRPRPYTYPRP | -0.456
RRIRNRPPRLPRPRPRPMGIPRP | -0.454
RRIRTRPPRLPRPRPRPTAFPRP | 0.13
RRIRYRPPRLPRPRPRPISHPRP | -0.675
RRIRCRPPRLPRPRPRPQMPPRP | -0.0931
RRIRYRPPRLPRPRPRPTSLPRP | -0.0466
RRIRNRPPRLPRPRPRPLREPRP | 0.128
RRIRWRPPRLPRPRPRPERIPRP | 0.0766
RRIRSRPPRLPRPRPRPNSFPRP | -0.63
RRIRPRPPRLPRPRPRPTEDPRP | -0.18
RRIRCRPPRLPRPRPRPDKKPRP | -0.132

Sequence | shrunken log2 fold change
RRIRIRPPRLPRPRPRPGDCPRP | -0.185
RRIRRRPPRLPRPRPRPYNVPRP | -0.181
RRIRNRPPRLPRPRPRPWMYPRP | 0.0204
RRIRLRPPRLPRPRPRPECLPRP | -0.00237
RRIRKRPPRLPRPRPRPVDAPRP | 0.493
RRIRYRPPRLPRPRPRPNMIPRP | -1.34
RRIRSRPPRLPRPRPRPPRDPRP | 1.34
RRIRWRPPRLPRPRPRPAWHPRP | 0.162
RRIRPRPPRLPRPRPRPEYGPRP | -0.167
RRIRGRPPRLPRPRPRPYCHPRP | 0.054
RRIRCRPPRLPRPRPRPGSFPRP | -0.22
RRIRCRPPRLPRPRPRPFLAPRP | 0.0788
RRIRSRPPRLPRPRPRPIARPRP | 0.029
RRIRNRPPRLPRPRPRPGFEPRP | 0.123
RRIRNRPPRLPRPRPRPNQTPRP | -0.0303
RRIRKRPPRLPRPRPRPSYGPRP | -0.141
RRIRCRPPRLPRPRPRPYSFPRP | -0.414
RRIRIRPPRLPRPRPRPNHHPRP | -0.868
RRIRVRPPRLPRPRPRPGITPRP | -0.238
RRIRRRPPRLPRPRPRPVNHPRP | 0.177
